Experiments:
[1] = OTA detoxification activity assay (specific activity, fluorescence reduction ex/em 390/450 nm); format: biochemical; conditions: SEQ ID NO: 1 = 100%
Procedure, shortened: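 Recombinant enzyme preparation with 200 ng/mL OTA in 100 mM sodium phosphate, at pH 6.0 and pH 7.5, 37° C. Degradation followed as the fall in fluorescence at ex/em 390/450 nm. Specific activity taken from the initial linear slope; one unit degrades 1 μmol OTA per min at a starting OTA of […].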

[2] = Enzymatic activity comparison: activity remaining after 65° C. for 10 min at pH 6.0, relative to SEQ ID NO: 1; format: physicochemical
Method: To compare the temperature behavior and thermostability of selected enzymes to one another, enzyme was incubated at 65° C. for 10 min at pH 6.0. The enzymatic activity remaining after incubation was compared to the remaining activity of the enzyme of SEQ ID NO: 1 after incubation, the latter being set to 100%, see Table 16.

B1: 87 (protein)
chain: MTTRTRILTAFLSLLAANACAADAAPAAPHTVVLRAARMFDGASGKLVDHPQLTIVGNKIVRIAQGDKAEVPAGAEVVDLGDATLLPGFIDAHVHLSGQSSDNWYGDFFDNMMRFPAEQALYGAYYARITLEAGFTSVRDVGSTDWVALGLRNAIDAGKVPGPRMLVSNYAVGSTGGHADQDPIPPHKLPLAGPLQGVCNGPEECRAAVRYQIKYGANVIKFMPSGGVLSLSDPVDAPELSQDEMNAVIGESHAWGRKVAAHAHGDKAAKMAVAAGVDSIEHGSFIEDDTLRAMKAKNVYLVPTISAAAHVEEKIGTFPPVIAEKGRAAAAHLRQTFRHAVQIGVPIALGTDAGVGAHGSNAREFRYMVENGLTPAQALLAGTANAARLLGTFDRVGTLEAGKLADVVAVPGNPIADITVTERPLFVMKDGVVVRRDAVR
modifications: exemplary polypeptide
Specific OTA detoxification activities in % compared to the enzyme of SEQ ID NO: 1, pH 6.0 [1]: 65% | Specific OTA detoxification activities in % compared to the enzyme of SEQ ID NO: 1, pH 7.5 [1]: 166% | Enzymatic activity remaining after incubation, compared to SEQ ID NO: 1 (set to 100%) [2]: 53%

B2: 103 (protein)
chain: MTTRTRILTAFLSLLAANACAADAAPAAPHTVVLRAARMFDGASGKLVDHPQLTIVGNKIVRIAQGDKAEVPAGAEVVDLGDATLLPGFIDAHVHLSGQSSDNWYGDFFDNMMRFPAEQALYGAYYARITLEAGFTSVRDVGSTDWVALGLRNAIDAGKVPGPRMLVSNYAVGSTGGHADQDPVPPHKLPLAGPLQGVCNGPEECRAAVRYQIKYGANVIKFMPSGGVLSLSDPVDAPELSQDEMNAVIGESHAWGRKVAAHAHGDKAAKMAVAAGVDSIEHGSFIEDDTLRAMKAKNVYLVPTISAIAHVEEKIGTFPPVIAEKGRAAAAHLRQTFRHAVQIGVPIALGTDAGVGAHGSNAREFRYMVENGLTPAQALLAGTANAARLLGTFDRVGTLEAGKLADVVAVPGNPIADITVTERPLFVMKDGVVVRRDAVR
modifications: exemplary polypeptide
Specific OTA detoxification activities in % compared to the enzyme of SEQ ID NO: 1, pH 6.0 [1]: 101% | Specific OTA detoxification activities in % compared to the enzyme of SEQ ID NO: 1, pH 7.5 [1]: 124% | Enzymatic activity remaining after incubation, compared to SEQ ID NO: 1 (set to 100%) [2]: 36%

B3: 95 (protein)
chain: MTTRTRILTAFLSLLAANACAADAAPAAPHTVVLRAARMFDGASGKLVDHPQLTIVGNKIVRIAQGDKAEVPAGAEVVDLGDATLLPGFIDAHVHLSGQSSDNWYGDFFDNMMRFPAEQALYGAYYARITLEAGFTSVRDVGSTDWVALGLRNAIDAGKVPGPRMLVSNYAVGSTGGHADQDPIPPHKLPLAGPLQGVCNGPEECRAAVRYQIKYGANVIKFMPSGGVLSLSDPVDAPELSQDEMNAVIGESHAWGRKVAAHAHGDKAAKMAVAAGVDSIEHGSFIEDDTLRAMKAKNVYLVPTISAIAHVEEKIGTFPPVIAEKGRAAAAHLRQTFRHAVQIGVPIALGTDAGLGAHGSNAREFRYMVENGLTPAQALLAGTANAARLLGTFDRVGTLEAGKLADVVAVPGNPIADITVTERPLFVMKDGVVVRRDAVR
modifications: exemplary polypeptide
Specific OTA detoxification activities in % compared to the enzyme of SEQ ID NO: 1, pH 6.0 [1]: 108% | Specific OTA detoxification activities in % compared to the enzyme of SEQ ID NO: 1, pH 7.5 [1]: 178% | Enzymatic activity remaining after incubation, compared to SEQ ID NO: 1 (set to 100%) [2]: 38%

B4: 88 (protein)
chain: MTTRTRILTAFLSLLAANACAADAAPAAPHTVVLRAARMFDGASGKLVDHPQLTIVGNKIVRIAQGDKAEVPAGAEVVDLGDATLLPGFIDAHVHLSGQSSDNWYGDFFDNMMRFPAEQALYGAYYARITLEAGFTSVRDVGSTDWVALGLRNAIDAGKVPGPRMLVSNYAVGSTGGHADQDPIPPHKLPLAGPLQGVCNGPEECRAAVRYQIKYGANVIKFMPSGGVLSLSDPVDAPELSQDEMNAVIGESHAWGRKVAAHAHGDKAAKMAVAAGVDSIEHGSFIEDDTLRAMKAKNVYLVPTISAIAHLEEKIGTFPPVIAEKGRAAAAHLRQTFRHAVQIGVPIALGTDAGVGAHGSNAREFRYMVENGLTPAQALLAGTANAARLLGTFDRVGTLEAGKLADVVAVPGNPIADITVTERPLFVMKDGVVVRRDAVR
modifications: exemplary polypeptide
Specific OTA detoxification activities in % compared to the enzyme of SEQ ID NO: 1, pH 6.0 [1]: 66% | Specific OTA detoxification activities in % compared to the enzyme of SEQ ID NO: 1, pH 7.5 [1]: 91% | Enzymatic activity remaining after incubation, compared to SEQ ID NO: 1 (set to 100%) [2]: 33%

B5: 91 (protein)
chain: MTTRTRILTAFLSLLAANACAADAAPAAPHTVVLRAARMFDGASGKLVDHPQLTIVGNKIVRIAQGDKAEVPAGAEVVDLGDATLLPGFIDAHVHLSGQSSDNWYGDFFDNMMRFPAEQALYGAYYARITLEAGFTSVRDVGSTDWVALGLRNAIDAGKVPGPRMLVSNYAVGSTGGHADQDPIPPHKLPLAGPLQGVCNGPEECRAAVRYQIKYGANVIKFMPSGGVLSLSDPVDAPELSQDEMNAVIGESHAWGRKVAAHAHGDKAAKMAVAAGVDSIEHGSFIEDDTLRAMKAKNVYLVPTISAIAHVEEKIGTLPPVIAEKGRAAAAHLRQTFRHAVQIGVPIALGTDAGVGAHGSNAREFRYMVENGLTPAQALLAGTANAARLLGTFDRVGTLEAGKLADVVAVPGNPIADITVTERPLFVMKDGVVVRRDAVR
modifications: exemplary polypeptide
Specific OTA detoxification activities in % compared to the enzyme of SEQ ID NO: 1, pH 6.0 [1]: 49% | Specific OTA detoxification activities in % compared to the enzyme of SEQ ID NO: 1, pH 7.5 [1]: 73% | Enzymatic activity remaining after incubation, compared to SEQ ID NO: 1 (set to 100%) [2]: 16%

B6: 96 (protein)
chain: MTTRTRILTAFLSLLAANACAADAAPAAPHTVVLRAARMFDGASGKLVDHPQLTIVGNKIVRIAQGDKAEVPAGAEVVDLGDATLLPGFIDAHVHLSGQSSDNWYGDFFDNMMRFPAEQALYGAYYARITLEAGFTSVRDVGSTDWVALGLRNAIDAGKVPGPRMLVSNYAVGSTGGHADQDPIPPHKLPLAGPLQGVCNGPEECRAAVRYQIKYGANVIKFMPSGGVLSLSDPVDAPELSQDEMNAVIGESHAWGRKVAAHAHGDKAAKMAVAAGVDSIEHGSFIEDDTLRAMKAKNVYLVPTISAIAHVEEKIGTFPPVIAEKGRAAAAHLRQTFRHAVQIGVPIALGTDAGIGAHGSNAREFRYMVENGLTPAQALLAGTANAARLLGTFDRVGTLEAGKLADVVAVPGNPIADITVTERPLFVMKDGVVVRRDAVR
modifications: exemplary polypeptide
Specific OTA detoxification activities in % compared to the enzyme of SEQ ID NO: 1, pH 6.0 [1]: 42% | Specific OTA detoxification activities in % compared to the enzyme of SEQ ID NO: 1, pH 7.5 [1]: 33% | Enzymatic activity remaining after incubation, compared to SEQ ID NO: 1 (set to 100%) [2]: 39%

B7: 89 (protein)
chain: MTTRTRILTAFLSLLAANACAADAAPAAPHTVVLRAARMFDGASGKLVDHPQLTIVGNKIVRIAQGDKAEVPAGAEVVDLGDATLLPGFIDAHVHLSGQSSDNWYGDFFDNMMRFPAEQALYGAYYARITLEAGFTSVRDVGSTDWVALGLRNAIDAGKVPGPRMLVSNYAVGSTGGHADQDPIPPHKLPLAGPLQGVCNGPEECRAAVRYQIKYGANVIKFMPSGGVLSLSDPVDAPELSQDEMNAVIGESHAWGRKVAAHAHGDKAAKMAVAAGVDSIEHGSFIEDDTLRAMKAKNVYLVPTISAIAHIEEKIGTFPPVIAEKGRAAAAHLRQTFRHAVQIGVPIALGTDAGVGAHGSNAREFRYMVENGLTPAQALLAGTANAARLLGTFDRVGTLEAGKLADVVAVPGNPIADITVTERPLFVMKDGVVVRRDAVR
modifications: exemplary polypeptide
Specific OTA detoxification activities in % compared to the enzyme of SEQ ID NO: 1, pH 6.0 [1]: 43% | Specific OTA detoxification activities in % compared to the enzyme of SEQ ID NO: 1, pH 7.5 [1]: 107% | Enzymatic activity remaining after incubation, compared to SEQ ID NO: 1 (set to 100%) [2]: 71%
